Reference: patent US20240101645A1 (HENRY M JACKSON FOUNDATION FOR THE ADVANCEMENT OF MILITARY …, published 2024)

Key:
[1] = target: SARS-CoV-2 S on pseudovirions (Wuhan Hu-1 / IL1/2020, last 18 amino acids removed) (SARS-CoV-2, UniProt P0DTC2 14-1273); test: cell-based or functional assay
[2] = target: T1, HCoV-229E spike antigens (bead panel) (HCoV-229E, UniProt P15423 16-1115); test: multiplex bead assay
T1 sequence: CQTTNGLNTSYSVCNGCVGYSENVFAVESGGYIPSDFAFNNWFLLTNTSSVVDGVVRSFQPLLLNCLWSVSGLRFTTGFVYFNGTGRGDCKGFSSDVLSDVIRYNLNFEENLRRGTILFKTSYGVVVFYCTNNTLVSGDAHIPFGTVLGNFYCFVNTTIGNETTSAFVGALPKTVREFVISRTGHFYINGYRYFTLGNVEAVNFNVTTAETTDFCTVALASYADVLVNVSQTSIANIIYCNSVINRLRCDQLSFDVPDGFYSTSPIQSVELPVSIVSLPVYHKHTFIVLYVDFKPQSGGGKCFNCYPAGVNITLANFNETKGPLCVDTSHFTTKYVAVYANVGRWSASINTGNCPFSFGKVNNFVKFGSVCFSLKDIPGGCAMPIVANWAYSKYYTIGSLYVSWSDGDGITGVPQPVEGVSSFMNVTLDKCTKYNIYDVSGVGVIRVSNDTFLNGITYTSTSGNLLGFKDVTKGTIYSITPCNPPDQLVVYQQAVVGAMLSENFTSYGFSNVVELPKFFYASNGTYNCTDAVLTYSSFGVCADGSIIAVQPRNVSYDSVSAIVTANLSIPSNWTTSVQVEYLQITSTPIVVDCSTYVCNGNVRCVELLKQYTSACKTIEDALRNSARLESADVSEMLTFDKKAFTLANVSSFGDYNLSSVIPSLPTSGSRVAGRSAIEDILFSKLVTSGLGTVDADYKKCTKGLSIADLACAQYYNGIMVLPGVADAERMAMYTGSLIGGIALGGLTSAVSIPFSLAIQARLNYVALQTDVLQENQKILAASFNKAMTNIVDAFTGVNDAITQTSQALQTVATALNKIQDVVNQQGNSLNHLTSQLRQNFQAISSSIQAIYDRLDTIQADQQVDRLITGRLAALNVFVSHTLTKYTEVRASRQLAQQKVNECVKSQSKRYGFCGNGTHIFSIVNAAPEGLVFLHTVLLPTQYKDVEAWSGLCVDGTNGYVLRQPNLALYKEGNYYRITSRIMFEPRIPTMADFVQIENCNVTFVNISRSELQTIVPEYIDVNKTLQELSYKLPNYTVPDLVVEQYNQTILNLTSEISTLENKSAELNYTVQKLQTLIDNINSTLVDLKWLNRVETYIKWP

[3] = target: T2, HCoV-OC43 spike antigens (bead panel) (HCoV-OC43, UniProt P36334 14-1297); test: multiplex bead assay
T2 sequence: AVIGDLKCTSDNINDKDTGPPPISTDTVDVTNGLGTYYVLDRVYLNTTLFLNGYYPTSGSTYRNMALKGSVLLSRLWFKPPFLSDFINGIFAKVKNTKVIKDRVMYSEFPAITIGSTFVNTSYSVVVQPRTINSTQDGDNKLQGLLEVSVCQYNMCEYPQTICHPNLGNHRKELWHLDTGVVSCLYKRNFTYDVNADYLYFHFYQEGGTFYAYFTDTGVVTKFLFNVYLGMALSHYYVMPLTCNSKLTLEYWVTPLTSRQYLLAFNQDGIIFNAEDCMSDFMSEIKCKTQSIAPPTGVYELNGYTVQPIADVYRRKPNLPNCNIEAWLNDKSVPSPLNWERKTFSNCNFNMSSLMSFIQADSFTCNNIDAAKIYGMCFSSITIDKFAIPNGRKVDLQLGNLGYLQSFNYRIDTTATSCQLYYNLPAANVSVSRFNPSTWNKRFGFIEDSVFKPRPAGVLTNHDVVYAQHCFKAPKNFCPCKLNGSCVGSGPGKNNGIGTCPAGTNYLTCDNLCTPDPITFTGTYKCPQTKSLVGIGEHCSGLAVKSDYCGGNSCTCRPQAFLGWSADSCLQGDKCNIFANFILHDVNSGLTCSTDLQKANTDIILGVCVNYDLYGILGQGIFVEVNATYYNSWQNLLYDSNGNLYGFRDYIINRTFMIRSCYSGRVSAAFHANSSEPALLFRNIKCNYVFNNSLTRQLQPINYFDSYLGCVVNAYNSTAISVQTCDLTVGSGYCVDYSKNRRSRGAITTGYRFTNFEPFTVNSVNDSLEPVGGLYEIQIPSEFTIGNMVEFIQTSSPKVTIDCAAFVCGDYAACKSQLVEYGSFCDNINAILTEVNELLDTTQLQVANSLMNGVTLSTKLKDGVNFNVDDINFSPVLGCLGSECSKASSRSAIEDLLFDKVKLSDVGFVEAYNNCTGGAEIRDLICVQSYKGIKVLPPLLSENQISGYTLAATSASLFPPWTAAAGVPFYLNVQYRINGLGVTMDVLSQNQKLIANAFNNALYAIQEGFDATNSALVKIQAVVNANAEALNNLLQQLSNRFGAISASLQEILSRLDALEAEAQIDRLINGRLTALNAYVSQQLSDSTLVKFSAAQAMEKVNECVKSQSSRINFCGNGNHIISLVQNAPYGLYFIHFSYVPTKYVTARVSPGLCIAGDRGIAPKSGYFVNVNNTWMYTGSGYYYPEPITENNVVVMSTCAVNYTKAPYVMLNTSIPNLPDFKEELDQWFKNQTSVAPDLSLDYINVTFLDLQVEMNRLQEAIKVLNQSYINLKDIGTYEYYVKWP

Binder | Mean IC50, pSV neutralization [1] [µg/ml] | Mean IC80, pSV neutralization [1] [µg/ml] | binding result [2] | binding result [3]
COV_1012 (antibody, V domains shown, human IgG1) VH: QVQLQESGPGLVRPSGTLSLTCAVSGGSISSSNWWSWVRQPPGKGLEWIGEIYRSGSTNYNPSLKSRVTISVAQSKNQFSLNLTSVTAADTAVYYCAKIIVGAPSDAFDIWGQGTMVTVSS VL: not shown | ≥ 25 | ≥ 25 | no binding | –
COV_1056 (antibody, V domains shown) VH: QVQLVESGGGVVQPGTSLRLSCEASGFTFSAYGMHWVRQAPGKGLEWVAISRNDGTTKYYADSVKGRLTISRDNSKNTLYLQMNSLTSEDTAVYYCANQCGGGCSVDSWGQGTLVTVSS VL: QAVVTQEASLTVSPGGTVTLTCGSSTGSVTSGHAPYWFQQKPGQAPRTLIFDTTHKHSWTPARFSGSLLGGKAALTLSGAQPEDEAEYYCLLSFGGAHVFGTGTKVTVLG | ≥ 25 | ≥ 25 | – | –
COV_2151 (antibody, V domains shown, human IgG1) VH: QVQLQESGPRLVKPSETLSLTCTVSGGSISGSNYFWGWIRQPPGKGLEWIGTIYYGGSTYYNPSLKSRVTISVDTSENQFSLKLSSVTAADTAVYYCANLAWLRGYFDYWGQGTLVTVSS VL: NFMLTQPHSVSESPGKTVTISCTRSSGSIASNYVQWYQQRPGSAPTTVIYEDNQRPSGVPDRFSGSIDSSSNSVSLTISGLKTEDEADYYCQSYDSSNWVFGGGTKLTVL | 0.12 | 1.21 | – | no binding
COV_3033 (antibody, V domains shown) VH: EVQMVESGGGFVQPGQSPRLSCLVSGLNFADYAFCWVRQAPGKGPEWIGFISSKLHGGTTHYAASVEGRFIISRDDSKNVVYLQMDNLKAEDSAVYYCTRDSYGYFPEYGFGVWGQGTLVTVSS VL: EVVLTQTPLSLSVTPGQPASISCRSSQSLVHSDGRTYLYWFLQKPGQPPQPLIYDISSRFSGVPYRFTGSGSGTYFTLRISRVEADDVGVYYCMHSIQLPRAFGQGTKVEIK | ≥ 25 | ≥ 25 | – | –
COV_2024 (antibody, V domains shown, human IgG1) VH: QVQLVQSGAEVRKPGSSVKVSCKASGGTFSTYAISWVRQAPGQGLEWMGGIIPMFGTTNYAQKFQGRVTITADESTRTAYMELSSLRSEDTAVYYCARDGGYDSWPDFDYWGQGTLVTVSS VL: EIVLTQSPATLSLSPGERATLSCRASQSISSFLAWYQQKPGQAPRLLIYDASNRATGIPARFSGSGSGTDFTLTVSSLEPEDFAVYYCHQRRNWPPIKTFGQGTKVDIK | 9.59 | ≥ 25 | – | no binding
COV_1060 (antibody, V domains shown) VH: EVQLVQSGAEVKKPGESLKISCKSSGYTFTSFWIAWVRQLPGKGLEWMGIIYPGDSDTKYSPSFQGQVTISADKSISTAYLQWSSLKASDTAMYYCARLRGSCSNGVCYAYYYNAMDVWGPGTTVTVSS VL: QSALTQPASVSGSPGQSITISCTGTSSDIGRYNYVSWYQHHPGKAPKLMIYEVSNRPSGVSNRFSGSKSGNTASLTISGLQAEDEADYYCTSYTSGSTLGFGGGTKVTVLG | ≥ 25 | ≥ 25 | – | –
COV_2056 (SEQ ID NO:432/437) (antibody, V domains shown) VH: EVQLVESGGGVVQPGRSLRLSCAASGFTFSIYGMHWVRQAPGKGLEWVALISYDGTNKYYADSVKGRFSISRDDSKNTLYLQMNSLRPEDTAVYYCAKVLMMGDSSGFSLGDAFDIWGQGTMVTVSS VL: DIQMTQSPSSVSASVGDRVTITCRASQGISNWLAWYQQKPGKAPKLLIYAASSLQSGVPSRFSGSVSGTDFTLTISSLQPEDFATYYCQQANSFPLTFGGGTKVDIK | 13.2 | ≥ 25 | – | no binding
COV_3040 (antibody, V domains shown) VH: QVQLVESGGGLVQPGRSLRLSCTTSGFNFGDNSMSWVRQAPGKGLEWIGFISNKAHGGTTDYAASVKGRFTISRDDSKSIAYLQMNSLKAEDTAIYYCTKDSYGHFPSYGFDIWGQGTMVTVSS VL: DVVMTQTPLSLSVTPGQPASISCKSTQSLVHTDGKTYFYWFLQKPGQPPQLLIYDVSSRFSGVPDRFSGSGSATDFTLRISRVEAEDVGVYYCMHSINFPRTFGQGTKVEIT | ≥ 25 | ≥ 25 | – | –
COV_3043 (antibody, V domains shown) VH: EVQVVESGGGLVQPGRSLRLSCTASGFNFGDNSMSWVRQAPGKGLEWVGFISNRDHSGTTDYAASVKGRFTISRDDSKSIAYLQMNSLKTEDTAIYYCIRDSYGHFPNYGFDVWGQGTMVTVSS VL: DVVMTQTPLSLSVTPGQPASISCKCSQSLIHSDGKTYQYWFLQRPGQPPQLLIYDVSNRVSGVPDRFSGSGSGTDFTLKISRVEAEDVGVYYCMHSINFPRTFGQGTKVEIT | ≥ 25 | ≥ 25 | – | –
